The record followed here is publication PMC12485084.

This test concerns the target 3xFLAG-TurboID-CaM C-lobe (human). Put plainly: proximity labelling.

3xFLAG-WT human TRPA1 (Transient Receptor Potential Ankyrin subtype 1), sequence (O75762 whole entry): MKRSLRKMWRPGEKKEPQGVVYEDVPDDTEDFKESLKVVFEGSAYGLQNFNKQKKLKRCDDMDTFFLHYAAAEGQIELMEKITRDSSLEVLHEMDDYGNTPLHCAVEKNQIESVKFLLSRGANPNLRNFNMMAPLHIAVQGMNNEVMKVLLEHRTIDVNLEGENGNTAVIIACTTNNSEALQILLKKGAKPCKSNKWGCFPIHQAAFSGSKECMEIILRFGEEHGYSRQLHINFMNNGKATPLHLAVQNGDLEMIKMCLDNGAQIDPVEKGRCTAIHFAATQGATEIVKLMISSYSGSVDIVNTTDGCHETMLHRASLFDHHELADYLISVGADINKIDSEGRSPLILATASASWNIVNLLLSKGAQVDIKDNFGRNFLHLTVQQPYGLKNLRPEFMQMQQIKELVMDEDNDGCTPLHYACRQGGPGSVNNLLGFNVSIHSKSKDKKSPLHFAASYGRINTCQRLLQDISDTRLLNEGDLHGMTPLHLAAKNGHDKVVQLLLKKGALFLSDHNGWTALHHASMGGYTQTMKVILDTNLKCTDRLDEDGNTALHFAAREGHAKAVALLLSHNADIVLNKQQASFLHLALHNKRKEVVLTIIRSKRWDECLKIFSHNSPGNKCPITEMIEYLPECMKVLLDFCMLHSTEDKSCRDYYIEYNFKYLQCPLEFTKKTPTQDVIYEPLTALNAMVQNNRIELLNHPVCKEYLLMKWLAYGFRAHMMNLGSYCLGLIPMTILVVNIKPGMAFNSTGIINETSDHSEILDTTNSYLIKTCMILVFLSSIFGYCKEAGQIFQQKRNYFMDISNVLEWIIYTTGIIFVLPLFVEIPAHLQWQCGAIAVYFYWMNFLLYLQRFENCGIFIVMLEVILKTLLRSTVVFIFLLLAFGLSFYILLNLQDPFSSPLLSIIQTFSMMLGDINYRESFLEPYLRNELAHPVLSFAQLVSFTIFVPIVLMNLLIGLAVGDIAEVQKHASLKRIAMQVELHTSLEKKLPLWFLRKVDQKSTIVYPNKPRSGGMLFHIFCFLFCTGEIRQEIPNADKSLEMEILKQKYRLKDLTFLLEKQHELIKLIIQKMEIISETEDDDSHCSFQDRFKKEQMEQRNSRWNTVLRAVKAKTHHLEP

In the case of “3xFLAG-WT human TRPA1 (Transient Receptor Potential Ankyrin subtype 1) (from UniProt O75762 1-1119) (natural protein)”, the percent increase in biotinylation with TurboID-CaM C-lobe versus free TurboID was found to be 40%.
